Data as given in patent publication US20250215104A1 (WALDEN BIOSCIENCES, published 2025).

What was measured:
[1] = molecular target: T1, human soluble urokinase plasminogen activator receptor (hsuPAR) (human, UniProt Q03405 23-303, limits assumed); experiment: BLI (Octet) off-rate screen of scFv
T1 construct: also called human suPAR; rhuPAR-His
T1 sequence (Q03405 23-303 limits assumed): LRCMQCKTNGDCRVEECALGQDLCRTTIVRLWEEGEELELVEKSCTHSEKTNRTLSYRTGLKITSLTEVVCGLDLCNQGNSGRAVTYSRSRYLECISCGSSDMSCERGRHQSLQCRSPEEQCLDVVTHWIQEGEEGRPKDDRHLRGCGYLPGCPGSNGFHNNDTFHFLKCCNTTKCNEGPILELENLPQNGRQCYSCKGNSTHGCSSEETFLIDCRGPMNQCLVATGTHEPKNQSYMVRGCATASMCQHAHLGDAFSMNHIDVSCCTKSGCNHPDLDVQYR

[2] = molecular target: T2, cynomolgus soluble urokinase plasminogen activator receptor (cynomolgus suPAR) (cynomolgus, UniProt Q9GK78 23-303, limits assumed); experiment: BLI (Octet) off-rate screen of scFv
T2 construct: also called cynomolgus uPAR; cynoPLAUR-His
Target sequence in this assay (Q9GK78 23-303 limits assumed): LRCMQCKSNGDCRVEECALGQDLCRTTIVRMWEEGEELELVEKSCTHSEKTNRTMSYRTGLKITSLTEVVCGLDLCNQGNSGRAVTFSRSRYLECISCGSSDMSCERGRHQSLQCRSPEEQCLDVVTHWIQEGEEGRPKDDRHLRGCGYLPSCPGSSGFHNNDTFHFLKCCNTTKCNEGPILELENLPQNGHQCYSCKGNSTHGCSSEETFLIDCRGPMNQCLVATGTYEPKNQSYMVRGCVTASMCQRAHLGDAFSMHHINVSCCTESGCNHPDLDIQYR

[3] = molecular target: T3, cynomolgus soluble urokinase plasminogen activator receptor (cynomolgus suPAR) (cynomolgus, UniProt Q9GK78 23-303, limits assumed); experiment: off-rate screen of scFv clones (kdis), Octet BLI
T3 construct: also called cynomolgus uPAR; cynoPLAUR-His
Target sequence in this assay (Q9GK78 23-303 limits assumed): as above

[4] = molecular target: T4, human soluble urokinase plasminogen activator receptor (hsuPAR) (human, UniProt Q03405 23-303, limits assumed); experiment: off-rate screen of scFv clones (kdis), Octet BLI
T4 construct: also called human suPAR; rhuPAR-His
T4 sequence (Q03405 23-303 limits assumed): as the sequence (Q03405 23-303 limits assumed) above

Binder | koff [1] | koff [2] | koff [3] | koff [4]
suPAR_DB01_F03 (scFv, V domains shown, Screened as scFv) VH: QVQLVQSGAEVKKPGASVKVSCKASGYTFTSYYMHWVRQAPGQGLEWMGWIDHENGNTIYDQKFQGRVTMTRDTSTSTVYMELSSLRSEDTAVYYCARGYDVDWFVYWGQGTLVTVSS VL: DIQMTQSPSSLSASVGDRVTITCSARQSVSYMYWYQQKPGKAPKLLIYRTSNLASGVPSRFSGSGSGTDFTLTISSLQPEDFATYYCQQYHSYPPTFGGGTKVEIK | 0.00251 s⁻¹ | 6.17e-07 s⁻¹ |  | 
suPAR_DB01_F02 (scFv, V domains shown, Screened as scFv) VH: QVQLVQSGAEVKKPGASVKVSCKASGYTFTNYYVHWVRQAPGQGLEWMGWIDHENGNTIYDQKFQGRVTMTRDTSTSTVYMELSSLRSEDTAVYYCARGYDVDWFVYWGQGTLVTVSS VL: DIQMTQSPSSLSASVGDRVTITCSARSSVSYMYWYQQKPGKAPKLLIYRTSNLASGVPSRFSGSGSGTDFTLTISSLQPEDFATYYCQQYHSYPPTFGGGTKVEIK | 0.004 s⁻¹ | 9.84e-05 s⁻¹ |  | 
suPAR_DB01_F04 (scFv, V domains shown, Screened as scFv) VH: QVQLVQSGAEVKKPGASVKVSCKASGYTFTDYYMHWVRQAPGQGLEWMGWIDHSNGNTIYAQKFQGRVTMTRDTSTSTVYMELSSLRSEDTAVYYCARGYDVDWFVYWGQGTLVTVSS VL: DIQMTQSPSSLSASVGDRVTITCSARSSVSYMYWYQQKPGKAPKLLIYRTSNLASGVPSRFSGSGSGTDFTLTISSLQPEDFATYYCQQYHSYPPTFGGGTKVEIK | 0.00309 s⁻¹ | 4.59e-05 s⁻¹ |  | 
suPAR_DB01_F05 (scFv, V domains shown, Screened as scFv) VH: QVQLVQSGAEVKKPGASVKVSCKASGYTFSNYYMHWVRQAPGQGLEWMGWIDHEGGSTIYDQKFQGRVTMTRDTSTSTVYMELSSLRSEDTAVYYCARGYDVDWFVYWGQGTLVTVSS VL: DIQMTQSPSSLSASVGDRVTITCSARSSVSYMYWYQQKPGKAPKLLIYRTSNLASGVPSRFSGSGSGTDFTLTISSLQPEDFATYYCQQYHSYPPTFGGGTKVEIK | 0.00175 s⁻¹ | 4.95e-07 s⁻¹ |  | 
suPAR_DB01_F06 (scFv, V domains shown, Screened as scFv) VH: QVQLVQSGAEVKKPGASVKVSCKASGYTFTSYYMHWVRQAPGQGLEWMGWIDHENGNTIYAQKFQGRVTMTRDTSTSTVYMELSSLRSEDTAVYYCARGYDVDWFVYWGQGTLVTVSS VL: DIQMTQSPSSLSASVGDRVTITCSARQSISYMYWYQQKPGKAPKLLIYRTSNLQSGVPSRFSGSGSGTDFTLTISSLQPEDFATYYCQQYHSYPPTFGGGTKVEIK | 0.00267 s⁻¹ | 4.98e-05 s⁻¹ |  | 
suPAR_DB01_F08 (scFv, V domains shown, Screened as scFv) VH: QVQLVQSGAEVKKPGASVKVSCKASGYTFTGYYMHWVRQAPGQGLEWMGWIDHENGSTIYAQKFQGRVTMTRDTSTSTVYMELSSLRSEDTAVYYCARGYDVDWFVYWGQGTLVTVSS VL: DIQMTQSPSSLSASVGDRVTITCRARQSVSYMYWYQQKPGKAPKLLIYRTSNLASGVPSRFSGSGSGTDFTLTISSLQPEDFATYYCQQYHSYPPTFGGGTKVEIK | 0.000505 s⁻¹ | 0.000207 s⁻¹ |  | 
suPAR_DB01_F10 (scFv, V domains shown, Screened as scFv) VH: QVQLVQSGAEVKKPGASVKVSCKASGYTFTSYYMHWVRQAPGQGLEWMGWIDHENGSTSYDQKFQGRVTMTRDTSTSTVYMELSSLRSEDTAVYYCARGYDVDWFVYWGQGTLVTVSS VL: DIQMTQSPSSLSASVGDRVTITCSARSSVSYMYWYQQKPGKAPKLLIYRTSNLASGVPSRFSGSGSGTDFTLTISSLQPEDFATYYCQQYHSYPPTFGGGTKVEIK | 0.00183 s⁻¹ | 3.88e-05 s⁻¹ |  | 
suPAR_DB01_F11 (scFv, V domains shown, Screened as scFv) VH: QVQLVQSGAEVKKPGASVKVSCKASGYTFTSYYMHWVRQAPGQGLEWMGWIDHEGGNTSYAQKFQGRVTMTRDTSTSTVYMELSSLRSEDTAVYYCARGYDVDWFVYWGQGTLVTVSS VL: DIQMTQSPSSLSASVGDRVTITCRASSSVSYMYWYQQKPGKAPKLLIYRTSNLASGVPSRFSGSGSGTDFTLTISSLQPEDFATYYCQQYHSYPPTFGGGTKVEIK | 0.00293 s⁻¹ | 9.02e-05 s⁻¹ |  | 
suPAR_DB01_F12 (scFv, V domains shown, Screened as scFv) VH: QVQLVQSGAEVKKPGASVKVSCKASGFNIKDYYIHWVRQAPGQGLEWMGWIDPENGSTIYDQKFQGRVTMTRDTSTSTVYMELSSLRSEDTAVYYCARGYDVDWFVYWGQGTLVTVSS VL: DIQMTQSPSSLSASVGDRVTITCRARQSVSYMYWYQQKPGKAPKLLIYRTSNLASGVPSRFSGSGSGTDFTLTISSLQPEDFATYYCQQYHSYPPTFGGGTKVEIK | 0.00282 s⁻¹ | 0.000192 s⁻¹ |  | 
suPAR_DB01_G01 (scFv, V domains shown, Screened as scFv) VH: QVQLVQSGAEVKKPGASVKVSCKASGDTFSSYYMHWVRQAPGQGLEWMGWIDHENGNTIYDQKFQGRVTMTRDTSTSTVYMELSSLRSEDTAVYYCARGYDVDWFVYWGQGTLVTVSS VL: DIQMTQSPSSLSASVGDRVTITCSARSSVSYMYWYQQKPGKAPKLLIYRTSNLASGVPSRFSGSGSGTDFTLTISSLQPEDFATYYCQQYHSYPPTFGGGTKVEIK | 0.00429 s⁻¹ | 0.000152 s⁻¹ |  | 
suPAR_DB01_G02 (scFv, V domains shown, Screened as scFv) VH: QVQLVQSGAEVKKPGASVKVSCKASGYSFTDYYMHWVRQAPGQGLEWMGWIDHENGNTIYAQKFQGRVTMTRDTSTSTVYMELSSLRSEDTAVYYCARGYDVDWFVYWGQGTLVTVSS VL: DIQMTQSPSSLSASVGDRVTITCSARSSVSYMYWYQQKPGKAPKLLIYRTSNLASGVPSRFSGSGSGTDFTLTISSLQPEDFATYYCQQYHSYPPTFGGGTKVEIK | 0.00245 s⁻¹ | 0.000149 s⁻¹ |  | 
suPAR_DB01_G04 (scFv, V domains shown, Screened as scFv) VH: QVQLVQSGAEVKKPGASVKVSCKASGYTLSGYYMHWVRQAPGQGLEWMGWIDPNSGGTKYAQKFQGRVTMTRDTSTSTVYMELSSLRSEDTAVYYCARGYDVDWFVYWGQGTLVTVSS VL: DIQMTQSPSSLSASVGDRVTITCRARQSVSYMYWYQQKPGKAPKLLIYRTSNLASGVPSRFSGSGSGTDFTLTISSLQPEDFATYYCQQYHSYPPTFGGGTKVEIK | 0.00364 s⁻¹ | 7.99e-05 s⁻¹ |  | 
suPAR_DB01_G07 (scFv, V domains shown, Screened as scFv) VH: QVQLVQSGAEVKKPGASVKVSCKASGNTFTSYYMHWVRQAPGQGLEWMGWIDPENGNTIYDQKFQGRVTMTRDTSTSTVYMELSSLRSEDTAVYYCARGYDVDWFVYWGQGTLVTVSS VL: DIQMTQSPSSLSASVGDRVTITCSARSSVSYMYWYQQKPGKAPKLLIYRTSNLASGVPSRFSGSGSGTDFTLTISSLQPEDFATYYCQQYHSYPPTFGGGTKVEIK | 0.00407 s⁻¹ | 1.73e-05 s⁻¹ |  | 
suPAR_DB01_G08 (scFv, V domains shown, Screened as scFv) VH: QVQLVQSGAEVKKPGASVKVSCKASGYSFTNYYMHWVRQAPGQGLEWMGWIDHENGNTSYAQKFQGRVTMTRDTSTSTVYMELSSLRSEDTAVYYCARGYDVDWFVYWGQGTLVTVSS VL: DIQMTQSPSSLSASVGDRVTITCSARQSVSYMYWYQQKPGKAPKLLIYRTSSLASGVPSRFSGSGSGTDFTLTISSLQPEDFATYYCQQYHSYPPTFGGGTKVEIK | 0.00309 s⁻¹ | 0.000104 s⁻¹ |  | 
suPAR_DB04_G09 (scFv, V domains shown, scFv clone from phage display) VH: QVQLVQSGAEVKKPGASVKVSCKASGDTSTTYYMHWVRQAPGQGLEWMGWIDHENGNTIYDQKFQGRVTMTRDTSTSTVYMELSSLRSEDTAVYYCARGYDVDWFVYWGQGTLVTVSS VL: DIQMTQSPSSLSASVGDRVTITCSAKSSVSYMYWYQQKPGKAPKLLIYRTSNLASGVPSRFSGSGSGTDFTLTISSLQPEDFATYYCQQYHSYPPTFGGGTKVEIK |  |  | 0.000647 s⁻¹ | 0.00359 s⁻¹
suPAR_DB04_G10 (scFv, V domains shown, scFv clone from phage display) VH: QVQLVQSGAEVKKPGASVKVSCKASGYTFTGYYMHWVRQAPGQGLEWMGWIDHENGNTIYDQKFQGRVTMTRDTSTSTVYMELSSLRSEDTAVYYCARGNDVDWFVYWGQGTLVTVSS VL: DIQMTQSPSSLSASVGDRVTITCRASSSVSYMYWYQQKPGKAPKLLIYRTSNLASGVPSRFSGSGSGTDFTLTISSLQPEDFATYYCQQYHSYPPTFGGGTKVEIK |  |  | 0.000462 s⁻¹ | 0.00322 s⁻¹
suPAR_DB04_G11 (scFv, V domains shown, scFv clone from phage display) VH: QVQLVQSGAEVKKPGASVKVSCKASGFTFKDYYIHWVRQAPGQGLEWMGWIDPDSGGTNYAQKFQGRVTMTRDTSTSTVYMELSSLRSEDTAVYYCARGYDVDWFVYWGQGTLVTVSS VL: DIQMTQSPSSLSASVGDRVTITCSARQSVSYMYWYQQKPGKAPKLLIYRTSNLASGVPSRFSGSGSGTDFTLTISSLQPEDFATYYCQQYHSYPPTFGGGTKVEIK |  |  | 0.00021 s⁻¹ | 0.00327 s⁻¹
suPAR_DB04_G12 (scFv, V domains shown, scFv clone from phage display) VH: QVQLVQSGAEVKKPGASVKVSCKASGYTFSDYYMHWVRQAPGQGLEWMGWIDHENGNTSYAQKFQGRVTMTRDTSTSTVYMELSSLRSEDTAVYYCARGYDVDWFVYWGQGTLVTVSS VL: DIQMTQSPSSLSASVGDRVTITCSARSSVSYMYWYQQKPGKAPKLLIYRTSNLASGVPSRFSGSGSGTDFTLTISSLQPEDFATYYCQQYHSYPPTFGGGTKVEIK |  |  | 8.1e-05 s⁻¹ | 0.00528 s⁻¹
suPAR_DB04_H01 (scFv, V domains shown, scFv clone from phage display) VH: QVQLVQSGAEVKKPGASVKVSCKASGYTFIGSYVHWVRQAPGQGLEWMGWIDHENGNTIYDQKFQGRVTMTRDTSTSTVYMELSSLRSEDTAVYYCARGYDVDWFVYWGQGTLVTVSS VL: DIQMTQSPSSLSASVGDRVTITCSARSSVSYMYWYQQKPGKAPKLLIYRTSSLASGVPSRFSGSGSGTDFTLTISSLQPEDFATYYCQQYHSYPPTFGGGTKVEIK |  |  | 0.00104 s⁻¹ | 0.00127 s⁻¹
suPAR_DB04_E05 (scFv, V domains shown, scFv clone from phage display) VH: QVQLVQSGAEVKKPGASVKVSCKASGFNIKDYYIHWVRQAPGQGLEWVGWIDPHSGGTNYAQKFQGRVTMTRDTSTSTVYMELSSLRSEDTAVYYCARGYDVDWFVYWGQGTLVTVSS VL: DIQMTQSPSSLSASVGDRVTITCSARSSVSYMYWYQQKPGKAPKLLIYRTSNLASGVPSRFSGSGSGTDFTLTISSLQPEDFATYYCQQYHSYPPTFGGGTKVEIK |  |  | 3.92e-07 s⁻¹ | 0.00359 s⁻¹
